The target in assay [1] is WT Rab11A (1–211, C-term his) (human) (UniProt P62491).
The target of assay [2] is T1, SH3BP5 (1–265), crystal construct (N-terminal GEF domain of SH3BP5) (UniProt O60239 1-265).
T1 construct: A SeMet form made in E. coli B834 was used for phasing; source: E. coli BL21 C41, purified (GSTrap, TEV cleavage, HiTrap Q, SEC); not shown: GST, N-terminal, cleaved
T1 sequence (looked up): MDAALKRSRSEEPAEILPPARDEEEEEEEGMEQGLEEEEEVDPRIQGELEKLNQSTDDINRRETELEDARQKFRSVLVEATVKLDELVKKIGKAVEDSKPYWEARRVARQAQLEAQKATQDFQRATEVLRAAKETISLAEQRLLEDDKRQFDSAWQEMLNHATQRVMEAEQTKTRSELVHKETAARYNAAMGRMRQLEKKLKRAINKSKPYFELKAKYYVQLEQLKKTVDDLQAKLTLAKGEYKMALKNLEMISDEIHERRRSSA
The assay is described as follows: SEC; SH3BP5 truncation and Rab11(Q70L) mixed at an equimolar amount, 5 min at 4 °C, 20 mM EDTA (pH 7.5) for 1 h at 4 °C, loaded onto Superdex 200 10/300. The note with it: both partners purified.

Assay [3] has as its target T2, SH3BP5 (31–455), N-terminally truncated (UniProt O60239 31-455).
T2 construct: also called N-terminally truncated SH3BP5 (31–455); N-terminally truncated variant of SH3BP5; source: E. coli BL21 C41, purified (GSTrap, TEV cleavage, HiTrap Q, SEC); not shown: GST, N-terminal, cleaved
T2 sequence (looked up): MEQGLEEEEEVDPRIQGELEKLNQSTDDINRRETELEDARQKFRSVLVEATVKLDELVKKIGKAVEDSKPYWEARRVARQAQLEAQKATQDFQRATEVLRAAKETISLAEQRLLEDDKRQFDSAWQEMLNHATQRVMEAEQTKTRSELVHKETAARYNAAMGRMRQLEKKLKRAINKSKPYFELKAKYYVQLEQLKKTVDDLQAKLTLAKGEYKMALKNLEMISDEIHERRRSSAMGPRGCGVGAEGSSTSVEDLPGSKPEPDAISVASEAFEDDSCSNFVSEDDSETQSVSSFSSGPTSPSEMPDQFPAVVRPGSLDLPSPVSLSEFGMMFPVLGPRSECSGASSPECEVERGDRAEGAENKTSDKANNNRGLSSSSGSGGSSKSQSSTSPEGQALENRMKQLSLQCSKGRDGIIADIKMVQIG
The assay can be described thus: HDX-MS; 1.0 µM Rab11(Q70L) and 1.0 µM SH3BP5 (31–455), incubated on ice with 20 µM EDTA for 1 h; D2O buffer 10 mM HEPES pH 7.5, 500 mM NaCl; 3 s at 1 °C and 3, 30, 300 s at room temperature. The note with it: both partners purified.

The target of assay [4] is T2, SH3BP5 (31–455), N-terminally truncated. The assay can be described thus: HDX-MS; 0.4 µM C-terminally His-tagged Rab11A (1–211) and 0.4 µM SH3BP5 (31–455), with or without 0.2 mg/mL nickelated lipid vesicles; D2O buffer 10 mM HEPES pH 7.5, 200 mM NaCl; 3, 30, 300, 3000 s at room temperature. The note with it: both partners purified.

B1: SH3BP5 (LE250AK) (natural protein)
chain: MDAALKRSRSEEPAEILPPARDEEEEEEEGMEQGLEEEEEVDPRIQGELEKLNQSTDDINRRETELEDARQKFRSVLVEATVKLDELVKKIGKAVEDSKPYWEARRVARQAQLEAQKATQDFQRATEVLRAAKETISLAEQRLLEDDKRQFDSAWQEMLNHATQRVMEAEQTKTRSELVHKETAARYNAAMGRMRQLEKKLKRAINKSKPYFELKAKYYVQLEQLKKTVDDLQAKLTLAKGEYKMALKNAKMISDEIHERRRSSAMGPRGCGVGAEGSSTSVEDLPGSKPEPDAISVASEAFEDDSCSNFVSEDDSETQSVSSFSSGPTSPSEMPDQFPAVVRPGSLDLPSPVSLSEFGMMFPVLGPRSECSGASSPECEVERGDRAEGAENKTSDKANNNRGLSSSSGSGGSSKSQSSTSPEGQALENRMKQLSLQCSKGRDGIIADIKMVQIG
In assay [1], B1 had a GEF activity on Rab11A (Mant-GDP release), mutant (1000 nM) compared with WT SH3BP5 (52 nM) (fold decrease) greater than 100.

B2: Rab11A Q70L (1–213) (natural protein, human, UniProt P62491 1-213, looked up)
chain: MGTRDDEYDYLFKVVLIGDSGVGKSNLLSRFTRNEFNLESKSTIGVEFATRSIQVDGKTIKAQIWDTAGLERYRAITSAYYRGAVGALLVYDIAKHLTYENVERWLKELRDHADSNIVIMLVGNKSDLRHLRAVPTDEARAFAEKNGLSFIETSALDSTNVEAAFQTILTEIYRIVSQKQMSDRRENDMSPSNNVVPIHVPPTTENKPKVQCC
notes: called full-length in the results; dominant active switch II mutant Q70L; Nucleotide removed with EDTA before complex formation; The limits 1-213 are printed for the crystal only; A SeMet form was used for phasing; also called Rab11(Q70L); full-length Q70L Rab11A; source: E. coli BL21 C41, purified (GSTrap, TEV cleavage, HiTrap Q, SEC); not shown: GST, N-terminal, cleaved
As to B2, the binding result in assay [2] and in assay [3] was “binds” each time.

B3: WT Rab11A (1–211, C-term his) (natural protein, human, UniProt P62491 1-211, looked up)
chain: MGTRDDEYDYLFKVVLIGDSGVGKSNLLSRFTRNEFNLESKSTIGVEFATRSIQVDGKTIKAQIWDTAGQERYRAITSAYYRGAVGALLVYDIAKHLTYENVERWLKELRDHADSNIVIMLVGNKSDLRHLRAVPTDEARAFAEKNGLSFIETSALDSTNVEAAFQTILTEIYRIVSQKQMSDRRENDMSPSNNVVPIHVPPTTENKPKVQ
notes: Rab11A, residues 1-211, wild type; The limits 1-211 are printed for the HDX-MS experiment; In GEF assays it was loaded with Mant-GDP; also called Rab11A-His6; Rab11a-His6; source: E. coli BL21 C41, purified (GSTrap, TEV cleavage, HiTrap Q, SEC); not shown: GST, N-terminal, cleaved; His6, C-terminal, kept
As to B3, in assay [4], the binding result is listed as “binds”.

(Values after paper PMC6138693, “Structural determinants of Rab11 activation by the guanine nucleotide exchange factor SH3BP5” (Nature Communications, 2018).)
